Reference: US20260167699A1 (Chugai, published 2026)

T1: FcγRIIa(R) (human, UniProt P12318 34-217)
T1 construct: extracellular domain; also called 2aR
T1 sequence: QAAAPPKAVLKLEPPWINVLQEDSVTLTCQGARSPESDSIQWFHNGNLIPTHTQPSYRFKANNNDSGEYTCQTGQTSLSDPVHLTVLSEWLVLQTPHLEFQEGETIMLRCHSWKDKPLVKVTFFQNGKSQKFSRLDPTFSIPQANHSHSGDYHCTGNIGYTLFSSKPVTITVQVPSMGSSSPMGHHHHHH

T2: FcγRIIa(H) (human, UniProt P12318 34-217)
T2 construct: extracellular domain; also called 2aH
T2 sequence: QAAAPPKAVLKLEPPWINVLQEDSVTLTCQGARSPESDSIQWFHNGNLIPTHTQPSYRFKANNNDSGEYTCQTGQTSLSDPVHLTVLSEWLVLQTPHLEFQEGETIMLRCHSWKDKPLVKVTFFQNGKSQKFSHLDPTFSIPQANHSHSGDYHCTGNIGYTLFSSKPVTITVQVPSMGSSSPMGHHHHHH

T3: FcγRIIb (human, UniProt P31994 43-217)
T3 construct: extracellular domain; also called 2b
T3 sequence: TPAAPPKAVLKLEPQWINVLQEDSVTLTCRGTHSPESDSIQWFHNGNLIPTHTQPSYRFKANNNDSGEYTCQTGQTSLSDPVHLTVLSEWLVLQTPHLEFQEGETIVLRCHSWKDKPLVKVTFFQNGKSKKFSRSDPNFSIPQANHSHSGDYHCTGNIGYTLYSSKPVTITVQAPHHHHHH


Experiments:
Experiment in all cases: SPR, relative to GpH7-A5/GpH7-B3/GpL16-k0 =100
[1] = biological target: T1, FcγRIIa(R)
[2] = biological target: T4, FcγRIa (human, UniProt P12314 16-292)
T4 construct: extracellular domain; also called 1a

[3] = biological target: T2, FcγRIIa(H)
[4] = biological target: T3, FcγRIIb

T4 sequence (P12314 other isoform, or with tags, fused parts or gaps): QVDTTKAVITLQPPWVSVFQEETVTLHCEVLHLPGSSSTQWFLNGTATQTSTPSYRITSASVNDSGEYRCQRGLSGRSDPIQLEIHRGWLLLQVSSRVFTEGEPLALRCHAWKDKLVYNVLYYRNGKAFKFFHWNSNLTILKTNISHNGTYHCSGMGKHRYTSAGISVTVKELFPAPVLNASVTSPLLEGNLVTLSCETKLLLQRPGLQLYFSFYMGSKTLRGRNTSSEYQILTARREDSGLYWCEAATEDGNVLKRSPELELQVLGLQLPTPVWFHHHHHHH

Binder	He/Con 2aR [1]	He/Con 1a [2]	He/Con 2aH [3]	He/Con 2b [4]
GpH7-A5/GpH7-B3 variant Y300_09D/GpL16-k0 (antibody, human IgG1, kappa, He Ab: heterodimerized IgG1, one H chain mutated) heavy 1: not shown heavy 2: not shown light: DIVMTQSPLSLPVTPGEPASISCQASESLVHSNRNTYLHWYLQKPGQSPQLLIYKVSNRFSGVPDRFSGSGSGTDFTLKISRVEAEDVGVYYCSQNTHVPPTFGQGTKVEIERTVAAPSVFIFPPSDEQLKSGTASVVCLLNNFYPREAKVQWKVDNALQSGNSQESVTEQDSKDSTYSLSSTLTLSKADYEKHKVYACEVTHQGLSSPVTKSFNRGEC	105%	106%	101%	122%
GpH7-A5/GpH7-B3 variant Y300_14T/GpL16-k0 (antibody, human IgG1, kappa, He Ab: heterodimerized IgG1, one H chain mutated) heavy 1: not shown heavy 2: not shown light: DIVMTQSPLSLPVTPGEPASISCQASESLVHSNRNTYLHWYLQKPGQSPQLLIYKVSNRFSGVPDRFSGSGSGTDFTLKISRVEAEDVGVYYCSQNTHVPPTFGQGTKVEIERTVAAPSVFIFPPSDEQLKSGTASVVCLLNNFYPREAKVQWKVDNALQSGNSQESVTEQDSKDSTYSLSSTLTLSKADYEKHKVYACEVTHQGLSSPVTKSFNRGEC	78.6%	105%	104%	72.7%
GpH7-A5/GpH7-B3 variant Y300_11K/GpL16-k0 (antibody, human IgG1, kappa, He Ab: heterodimerized IgG1, one H chain mutated) heavy 1: not shown heavy 2: not shown light: DIVMTQSPLSLPVTPGEPASISCQASESLVHSNRNTYLHWYLQKPGQSPQLLIYKVSNRFSGVPDRFSGSGSGTDFTLKISRVEAEDVGVYYCSQNTHVPPTFGQGTKVEIERTVAAPSVFIFPPSDEQLKSGTASVVCLLNNFYPREAKVQWKVDNALQSGNSQESVTEQDSKDSTYSLSSTLTLSKADYEKHKVYACEVTHQGLSSPVTKSFNRGEC	73.1%	101%	74.2%	67.4%
GpH7-A5/GpH7-B3 variant Y300_10E/GpL16-k0 (antibody, human IgG1, kappa, He Ab: heterodimerized IgG1, one H chain mutated) heavy 1: not shown heavy 2: not shown light: DIVMTQSPLSLPVTPGEPASISCQASESLVHSNRNTYLHWYLQKPGQSPQLLIYKVSNRFSGVPDRFSGSGSGTDFTLKISRVEAEDVGVYYCSQNTHVPPTFGQGTKVEIERTVAAPSVFIFPPSDEQLKSGTASVVCLLNNFYPREAKVQWKVDNALQSGNSQESVTEQDSKDSTYSLSSTLTLSKADYEKHKVYACEVTHQGLSSPVTKSFNRGEC	127%	108%	108%	175%
GpH7-A5/GpH7-B3 variant Y300_13S/GpL16-k0 (antibody, human IgG1, kappa, He Ab: heterodimerized IgG1, one H chain mutated) heavy 1: not shown heavy 2: not shown light: DIVMTQSPLSLPVTPGEPASISCQASESLVHSNRNTYLHWYLQKPGQSPQLLIYKVSNRFSGVPDRFSGSGSGTDFTLKISRVEAEDVGVYYCSQNTHVPPTFGQGTKVEIERTVAAPSVFIFPPSDEQLKSGTASVVCLLNNFYPREAKVQWKVDNALQSGNSQESVTEQDSKDSTYSLSSTLTLSKADYEKHKVYACEVTHQGLSSPVTKSFNRGEC	72.4%	105%	97.8%	70.4%

Next, values leading:

He/Con 2aR [1]	He/Con 1a [2]	He/Con 2aH [3]	He/Con 2b [4]	Binder
96.2%	101%	101%	92.7%	GpH7-A5/GpH7-B3 variant Y300_18N/GpL16-k0 (antibody, human IgG1, kappa, He Ab: heterodimerized IgG1, one H chain mutated) heavy 1: not shown heavy 2: not shown light: DIVMTQSPLSLPVTPGEPASISCQASESLVHSNRNTYLHWYLQKPGQSPQLLIYKVSNRFSGVPDRFSGSGSGTDFTLKISRVEAEDVGVYYCSQNTHVPPTFGQGTKVEIERTVAAPSVFIFPPSDEQLKSGTASVVCLLNNFYPREAKVQWKVDNALQSGNSQESVTEQDSKDSTYSLSSTLTLSKADYEKHKVYACEVTHQGLSSPVTKSFNRGEC
103%	105%	105%	114%	GpH7-A5/GpH7-B3 variant Y300_16H/GpL16-k0 (antibody, human IgG1, kappa, He Ab: heterodimerized IgG1, one H chain mutated) heavy 1: not shown heavy 2: not shown light: DIVMTQSPLSLPVTPGEPASISCQASESLVHSNRNTYLHWYLQKPGQSPQLLIYKVSNRFSGVPDRFSGSGSGTDFTLKISRVEAEDVGVYYCSQNTHVPPTFGQGTKVEIERTVAAPSVFIFPPSDEQLKSGTASVVCLLNNFYPREAKVQWKVDNALQSGNSQESVTEQDSKDSTYSLSSTLTLSKADYEKHKVYACEVTHQGLSSPVTKSFNRGEC
